Experimental data taken from article doi:10.1101/2022.08.17.504309.

Target: C-type lectin domain of CD62P (P-selectin), residues 1-117, wild type (UniProt P16109)
Experiment: ELISA

UniProt P16109, sequence (P16109 42-158): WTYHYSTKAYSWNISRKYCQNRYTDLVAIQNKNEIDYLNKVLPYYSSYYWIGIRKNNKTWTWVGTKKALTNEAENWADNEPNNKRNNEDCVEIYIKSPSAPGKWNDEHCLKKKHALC

Substance	fold binding against the combined lectin and EGF-like domains
soluble integrin αvβ3 (from UniProt P06756;P05106) (complex)	2 fold
soluble recombinant integrin αIIbβ3 (from UniProt P08514;P05106) (complex)	2 fold
